From patent US20120237442A1

Target: CH1-AD1-Fab-h679
Assay: equilibrium gel filtration analysis of the binary complex (DDD1 dimer docking to AD1); complex also seen by SE-HPLC

CH1-AD1-Fab-h679, sequence (heavy, as listed by the source): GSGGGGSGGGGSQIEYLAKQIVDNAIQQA

## CH1-DDD1-Fab-hMN-14
  Kd: 8 nM
